Test results: the supplement of paper PMC10724198
± gives the standard deviation of the averaged measurements.

Experiments:
[1] = system: Saccharomyces cerevisiae; assay: protein stability index of tFT-peptide fusion (C-terminal peptide) (PSI (0-1 scale)); higher = more stable (slower turnover); conditions: genetic background: wild type; temperature: 30 C
[2] = system: Saccharomyces cerevisiae; assay: as above
Method: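 MPS profiling in S. cerevisiae of the tFT-X12 degron library: putative degron peptides plus stable controls, 12 aa, fused to the C-terminus of a sfGFP-mCherry timer. Cells are FACS-sorted into 8 mCherry/sfGFP bins and deep-sequenced. PSI runs from 0 (unstable) to 1 (stable). Backgrounds are wild type, das1Δ and doa10Δ at 30 °C, and wild type, das1Δ, cdc34-1 and cdc53-1 at 37 °C; 2-3 technical replicates each.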

[3] = genetic background: cdc34-1, temperature: 37 C
[4] = genetic background: cdc53-1, temperature: 37 C
[5] = genetic background: das1 deletion, temperature: 30 C
[6] = genetic background: das1 deletion, temperature: 37 C
[7] = genetic background: doa10 deletion, temperature: 30 C
[8] = genetic background: wild type, temperature: 30 C
[9] = genetic background: wild type, temperature: 37 C
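Note: PSI is a weighted mean of sequencing reads over stability bins, variants kept only with over 10 reads, mCherry proximal and sfGFP distal, peptide attached via GGGS linker.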

Sequence	protein stability index [1]	protein stability index [2, 3]	protein stability index [2, 4]	protein stability index [2, 5]	protein stability index [2, 6]	protein stability index [2, 7]	protein stability index [2, 8]	protein stability index [2, 9]
APPPVAPAPGSA	0.709 ± 0.012	0.65 ± 0.026	0.701 ± 0.015	0.653 ± 0.035	0.7043 ± 0.0061	0.647 ± 0.041	0.675 ± 0.053	0.672 ± 0.051
IYITFQIYVSDM	0.229 ± 0.018	0.104 ± 0.018	0.172 ± 0.0076	0.161 ± 0.019	0.267 ± 0.0076	0.0912 ± 0.04	0.127 ± 0.0083	0.244 ± 0.032
VGYSLFTFLFCA	0.432 ± 0.0057	0.579 ± 0.014	0.6313 ± 0.0052	0.481 ± 0.03	0.6315 ± 0.0016	0.303 ± 0.011	0.335 ± 0.017	0.51 ± 0.027
KYCPCIPLLIAL	0.429 ± 0.0047	0.406 ± 0.0064	0.381 ± 0.012	0.339 ± 0.036	0.5 ± 0.012	0.387 ± 0.013	0.329 ± 0.033	0.443 ± 0.012
FVLLCVLEFVAG	0.27 ± 0.008	0.104 ± 0.027	0.166 ± 0.011	0.173 ± 0.025	0.299 ± 0.0013	0.131 ± 0.004	0.151 ± 0.036	0.253 ± 0.0087
GALWVLGVVVGG	0.467 ± 0.018	0.461 ± 0.0066	0.505 ± 0.0085	0.365 ± 0.026	0.537 ± 0.0094	0.329 ± 0.012	0.364 ± 0.027	0.511 ± 0.013
YRWERIYIGLRL	0.291 ± 0.024	0.397 ± 0.037	0.523 ± 0.036	0.49 ± 0.039	0.615 ± 0.019	0.191 ± 0.008	0.188 ± 0.018	0.36 ± 0.0093
KKTKKTMIIKTT	0.463 ± 0.0091	0.693 ± 0.066	0.706 ± 0.027	0.6314 ± 0.005	0.745 ± 0.0037	0.33 ± 0.021	0.369 ± 0.04	0.6051 ± 0.0008
LQYSKALAVICG	0.374 ± 0.05	0.218 ± 0.034	0.264 ± 0.027	0.235 ± 0.041	0.367 ± 0.01	0.19 ± 0.017	0.221 ± 0.033	0.317 ± 0.023
CSPSCNIVRLVS	0.294 ± 0.022	0.527 ± 0.016	0.723 ± 0.025	0.632 ± 0.02	0.712 ± 0.008	0.11 ± 0.018	0.114 ± 0.017	0.198 ± 0.059
LLLFLHSTLTCR	0.49 ± 0.011	0.474 ± 0.056	0.543 ± 0.01	0.408 ± 0.035	0.618 ± 0.018	0.383 ± 0.011	0.411 ± 0.02	0.558 ± 0.022
GWMLVVWCGVFG	0.275 ± 0.03	0.174 ± 0.01	0.235 ± 0.0027	0.216 ± 0.035	0.338 ± 0.011	0.192 ± 0.011	0.195 ± 0.031	0.295 ± 0.0069
CVLSWSLFVVVW	0.044 ± 0.026	0.0234 ± 0.0015	0.028 ± 0.0018	0.0273 ± 0.0091	0.0441 ± 0.011	0.0209 ± 0.0017	0.0168 ± 0.0058	0.0346 ± 0.015
FLVCTFCRWVWL	0.233 ± 0.056	0.476 ± 0.079	0.6 ± 0.039	0.448 ± 0.028	0.606 ± 0.025	0.165 ± 0.023	0.162 ± 0.012	0.249 ± 0.018
TLVFPRFLFLVV	0.452 ± 0.066	0.348 ± 0.02	0.365 ± 0.019	0.393 ± 0.031	0.493 ± 0.023	0.518 ± 0.011	0.363 ± 0.028	0.432 ± 0.0083
VVLVGVAVCRLG	0.368 ± 0.011	0.4 ± 0.0065	0.47 ± 0.013	0.29 ± 0.025	0.4888 ± 0.0021	0.244 ± 0.01	0.277 ± 0.014	0.46 ± 0.0018
LWYVQILNIVLN	0.328 ± 0.033	0.31 ± 0.018	0.388 ± 0.019	0.293 ± 0.048	0.4552 ± 0.0029	0.233 ± 0.024	0.249 ± 0.029	0.409 ± 0.013
LSRELRFVGFYH	0.318 ± 0.066	0.637 ± 0.07	0.751 ± 0.019	0.656 ± 0.017	0.717 ± 0.025	0.222 ± 0.004	0.229 ± 0.054	0.517 ± 0.043

Sequence	protein stability index [1]	protein stability index [2, 3]	protein stability index [2, 4]	protein stability index [2, 5]	protein stability index [2, 6]	protein stability index [2, 7]	protein stability index [2, 8]	protein stability index [2, 9]
FIFCLSCGVWGG	0.414 ± 0.02	0.5052 ± 0.0007	0.583 ± 0.027	0.478 ± 0.039	0.593 ± 0.023	0.49 ± 0.026	0.466 ± 0.012	0.5582 ± 0.0053
VARRRQQWMRGS	0.517 ± 0.041	0.517 ± 0.066	0.56 ± 0.034	0.5261 ± 0.003	0.54643 ± 0.00042	0.529 ± 0.0063	0.516 ± 0.025	0.5449 ± 0.004
SVVVLHVHVRPP	0.517 ± 0.12	0.618 ± 0.035	0.692 ± 0.018	0.5839 ± 0.0056	0.63 ± 0.011	0.593 ± 0.044	0.582 ± 0.024	0.6287 ± 0.0031
VVFLWRCRLLLG	0.164 ± 0.019	0.276 ± 0.015	0.346 ± 0.015	0.213 ± 0.034	0.416 ± 0.0042	0.0938 ± 0.011	0.115 ± 0.027	0.154 ± 0.0056
VVPYPFLTLLNI	0.58 ± 0.12	0.417 ± 0.026	0.407 ± 0.029	0.403 ± 0.041	0.539 ± 0.014	0.589 ± 0.033	0.381 ± 0.012	0.492 ± 0.0084
LVDSRIVWLFVS	0.0955 ± 0.039	0.325 ± 0.095	0.584 ± 0.034	0.439 ± 0.026	0.632 ± 0.024	0.0761 ± 0.016	0.0713 ± 0.017	0.0698 ± 0.021
VLFSVWFFLVLV	0.117 ± 0.017	0.0557 ± 0.017	0.0354 ± 0.0069	0.122 ± 0.032	0.134 ± 0.0075	0.241 ± 0.015	0.103 ± 0.035	0.127 ± 0.04
IVFLPVLLWFSV	0.407 ± 0.015	0.389 ± 0.0069	0.411 ± 0.0085	0.333 ± 0.032	0.474 ± 0.0013	0.373 ± 0.019	0.297 ± 0.035	0.442 ± 0.0084
LVGLESCGERAG	0.69 ± 0.035	0.655 ± 0.00071	0.7436 ± 0.0018	0.644 ± 0.025	0.7308 ± 0.0011	0.643 ± 0.027	0.654 ± 0.0009	0.72 ± 0.024
LLLSLLVLRFFL	0.423 ± 0.027	0.37 ± 0.043	0.309 ± 0.007	0.356 ± 0.047	0.536 ± 0.033	0.5037 ± 0.0014	0.357 ± 0.028	0.501 ± 0.019
SPCSNFLECLSF	0.561 ± 0.11	0.714 ± 0.03	0.7431 ± 0.0018	0.643 ± 0.0079	0.729 ± 0.017	0.626 ± 0.025	0.641 ± 0.017	0.733 ± 0.0071
VLYCRSCFLRVS	0.281 ± 0.021	0.543 ± 0.021	0.584 ± 0.015	0.436 ± 0.024	0.6292 ± 0.0028	0.1667 ± 0.0015	0.161 ± 0.0061	0.362 ± 0.023
PPPYPPPPARSL	0.5 ± 0.014	0.6336 ± 0.00079	0.6951 ± 0.0027	0.673 ± 0.016	0.6884 ± 0.0056	0.6825 ± 0.0033	0.689 ± 0.022	0.6823 ± 0.0034
FVVFLLFFMLYH	0.379 ± 0.043	0.312 ± 0.052	0.428 ± 0.019	0.317 ± 0.048	0.4366 ± 0.0024	0.311 ± 0.004	0.305 ± 0.025	0.411 ± 0.0096
IIAVFRCCLRVY	0.168 ± 0.076	0.052 ± 0.0087	0.12 ± 0.022	0.131 ± 0.034	0.216 ± 0.003	0.061 ± 0.02	0.0911 ± 0.025	0.152 ± 0.012
IFRLVRVVRSSS	0.386 ± 0.031	0.669 ± 0.015	0.688 ± 0.037	0.6 ± 0.025	0.714 ± 0.05	0.19 ± 0.036	0.236 ± 0.03	0.476 ± 0.011
RSIVFRVSRRLN	0.277 ± 0.034	0.65 ± 0.074	0.729 ± 0.019	0.671 ± 0.023	0.726 ± 0.015	0.13 ± 0.0084	0.161 ± 0.025	0.343 ± 0.044
EWFFCLGLFRFH	0.369 ± 0.045	0.567 ± 0.022	0.6045 ± 0.0057	0.472 ± 0.044	0.6152 ± 0.0061	0.208 ± 0.022	0.235 ± 0.025	0.433 ± 0.00045
